# Data: publication PMC7327165 (mBio, 2020)
# Molecular target: full-length monomeric gp120 (clade B, BaL strain) (HIV-1 clade B, strain BaL, UniProt Q2MKA8, strain)
# Assay: flow cytometry on cells
# Settings: one partner purified
row,Binder,binding result
1,"CH55 mAb (antibody, V domains shown) VH: QVQLVQSGAEVKKPGASVKVSCKASGYIFISYFMHWVRQAPGQGLEWMGIINPSSGDTRYAQKFQGRVTMTRDTSTNTVYMELSSLRSDDTAVYYCARRPGGLERHNWLDPWGQGTLVTVSS VL: not shown",binds
2,"DH677.3 mAb (antibody, V domains shown) VH: QVQLVQSGAEVQKPGASVKVSCKASGYTFASYDINWVRQATGQGLEWMGWMNPKTGNTGYAQKFQGRVTLTRNTSISTAYMELTSLRSEDTAVYYCATYRIIAAVGYRYFQYWGQGTLVTVSS VL: DIQLTQSPSSLSASVGDSVTITCRASQGFGNYLAWYQQRPGKVPEVLIYAATTLQSGVPSRFSGSGSGTDFTLTISSLQPEDVATYYCQKYNSAPFTFGQGTRLEIK",binds
3,"CH54 mAb (antibody, V domains shown) VH: QVQLVQSGPEVKKPGTSMKISCKASGFTFTRSTMQWVRQARGQRLEWIGWIVVGSGNTNYAQKFQERVTITRDMSTSTAYMELSSLRSEDTAVYYCAAAPVGPTSSDYWGQGTLVTVSS VL: DIQMTQSPSSLSASVGDRVTITCRASQSIINYLNWYQQKPGRAPKLLIYAASSLLSGVPSRFSGSGSGTDFTLTISSLQPEDFATYYCQQSYSTPYTFGQGTKLEIK",binds
4,"N12-i3 mAb (antibody, V domains shown) VH: QVQLVQSGAEVKKPGSSVRVSCKASGGSFSRYTVNWVRQAPGQGLEWMARFIPIFNMPDYAPKFQGRITITADESTSTAYLELSSLTSDDTAVYYCASRQHHEYFQEWGQGTLVTVSS VL: EIVLTQSPGTLSMSPGERATLSCRASRTVSSSNLAWYQQKPGQAPRLLIYDVSSRATGIPDRFSGRGSGTDFTLTISRLEPEDFAVYYCQQYGTSPLTFGGGTKVEIK",binds
5,"C11 mAb (antibody, V domains shown) VH: EVQLVESGGGLVKPGGSLRLSCAASGFTFSSYSMNWVRQAPGRGLEWVSSISNTSTYIYYADSVEGRFTLSRDNAKNSLYLQMNSLRAEDTAVYYCARANQHFDWLLSLLGGYHYYGMDVWGQGTTVTVSS VL: not shown",binds
6,"A32 mAb (antibody, V domains shown) VH: QVQLQESGPGLVKPSQTLSLSCTVSGGSSSSGAHYWSWIRQYPGKGLEWIGYIHYSGNTYYNPSLKSRITISQHTSENQFSLKLNSVTVADTAVYYCARGTRLRTLRNAFDIWGQGTMVTVSS VL: VLTQPPSASGSPGQSVTISCTGTSSDVGGYNYVSWYQHHPGKAPKLIISEVNNRPSGVPDRFSGSKSGNTASLTVSGLQAEDEAEYYCSSYTDIHNFVFGGGTKLTVL",binds

# Molecular target: T1, full-length single-chain gp120BaL-CD4 complex (FLSC) (HIV-1 clade B, BaL (gp120 moiety); CD4 …, UniProt Q2MKA8, strain)
# T1 construct: also called full-length single-chain protein
# Assay: FRET or BRET + other: fluorescence correlation spectroscopy
# Settings: both partners purified
row,Binder,binding result
1,"C11 Fab (Fab, V domains shown) VH: EVQLVESGGGLVKPGGSLRLSCAASGFTFSSYSMNWVRQAPGRGLEWVSSISNTSTYIYYADSVEGRFTLSRDNAKNSLYLQMNSLRAEDTAVYYCARANQHFDWLLSLLGGYHYYGMDVWGQGTTVTVSS VL: not shown",binds
